Measured values: US20150203577A1 (Chugai, published 2015)

Legend:
[1] = target: T1, mouse FcγRIII (mouse, UniProt P08508 31-215); experiment: SPR Biacore T200, KD ratio
T1 construct: also called mFcγRIII; mFcgRIII
T1 chain: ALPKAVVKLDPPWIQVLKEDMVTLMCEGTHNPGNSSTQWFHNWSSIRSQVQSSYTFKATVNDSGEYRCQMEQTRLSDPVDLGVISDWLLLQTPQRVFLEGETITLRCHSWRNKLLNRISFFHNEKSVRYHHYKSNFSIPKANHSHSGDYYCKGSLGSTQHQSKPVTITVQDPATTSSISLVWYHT

[2] = target: T2, mouse FcγRII (mouse, UniProt P08101 30-210); experiment: SPR Biacore T200, KD ratio
T2 construct: also called mFcγRII; mFcgRII
T2 sequence: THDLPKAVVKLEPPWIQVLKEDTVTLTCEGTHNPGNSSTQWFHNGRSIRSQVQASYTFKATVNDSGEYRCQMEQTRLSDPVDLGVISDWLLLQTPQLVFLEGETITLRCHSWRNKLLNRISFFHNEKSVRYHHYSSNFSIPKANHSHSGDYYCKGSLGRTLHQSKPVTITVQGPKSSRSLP

[3] = target: T2, mouse FcγRII; experiment: SPR Biacore T200, KD ratio; remark: listed apart in the source
Excerpt: The antibody H chain variable region used was the variable region H237 (SEQ ID NO: 1) of the H chain VH3-IgG1 of the anti-IL-6 receptor antibody Fv4-IgG1 described in WO2009/125825. The antibody L chain commonly used was the L chain MRAL-k0 (SEQ ID NO: 2) of the anti-IL-6 receptor antibody tocilizumab. H237-MB476/MRAL-k0 and H237-MB515/MRAL-k0 were used as templates to introduce new alterations. These variants were expressed and purified by the method of Reference Example 1 and evaluated for their binding to mFcγRII and mFcγRIII by the method of Reference Example 2 using Biacore T200.
(§1) Each altered antibody was analyzed for its interaction with each Fcγ receptor prepared above using Biacore T100 (GE Healthcare Japan Corp.), Biacore T200 (GE Healthcare Japan Corp.), Biacore A100, or Biacore 4000. The running buffer used was HBS-EP+ (GE Healthcare Japan Corp.). The assay temperature was set to 25° C. The sensor chips used were chips prepared by immobilizing Protein L (ACTIGEN or BioVision) onto Series S Sensor Chip CM5 (GE Healthcare Japan Corp.) or Series S Sensor Chip CM4 (GE Healthcare Japan Corp.) by the amine coupling method.
(§2) In order to calculate the KD value of each altered antibody for FcγR, kinetic analysis was conducted according to the following method: first, the antibody of interest was captured onto any of these chips and allowed to interact with mFcγR diluted with a running buffer. For the obtained sensorgram, the assay results were globally fit into the 1:1 Langmuir binding model using Biacore Evaluation Software to calculate an association rate constant ka (L/mol/s) and a dissociation rate constant kd (1/s). From these values, the dissociation constant KD (mol/L) was calculated.

[4] = target: T3, mouse FcγRIII extracellular domain, C-terminally His-tagged (mouse, UniProt P08508 31-215); experiment: SPR Biacore T200, antibody captured on Protein L
T3 construct: the whole entry is named; also called mFcγRIII; mFcgRIII
T3 chain: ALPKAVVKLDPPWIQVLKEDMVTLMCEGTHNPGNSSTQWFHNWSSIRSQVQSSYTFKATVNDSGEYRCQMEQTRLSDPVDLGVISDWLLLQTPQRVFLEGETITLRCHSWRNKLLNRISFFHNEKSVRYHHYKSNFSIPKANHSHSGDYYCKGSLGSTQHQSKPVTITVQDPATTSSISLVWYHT
Method: As for alterations, “X000Z” represents the substitution of amino acid X at EU numbering position 000 by amino acid Z. In this context, X and Z represent the one-letter codes of the amino acid residues.
as §1, §2

B1: H237-MB338/MRAL-k0 (antibody, mouse IgG1, kappa)
heavy: QVQLQESGPGLVKPSETLSLTCAVSGHSISHDHAWSWVRQPPGEGLEWIGFISYSGITNYNPSLQGRVTISRDNSKNTLYLQMNSLRAEDTAVYYCARSLARTTAMDYWGEGTLVTVSSAKTTPPSVYPLAPGSAAQTNSMVTLGCLVKGYFPEPVTVTWNSGSLSSGVHTFPAVLQSDLYTLSSSVTVPSSTWPSETVTCNVAHPASSTKVDKKIVPRDCGCKPCICEDPEVEDVFIFPPKPKDVLTITLTPKVTCVVVDISKDDPEVQFSWFVDDVEVHTAQTQPREEQFNSTFRSVSELPIMHQDWLNGKEFKCRVNSAAFPAPIEKTISKTKGRPKAPQVYTIPPPKEQMAKDKVSLTCMITDFFPEDITVEWQWNGQPAENYKNTQPIMDTDGSYFVYSKLNVQKSNWEAGNTFTCSVLHEGLHNHHTEKSLSHSPGK
light: not shown
notes: copies: 2 + 2
[1]
  Relative mFcγRIII-binding activity (MB110 = 1): 0.64 fold
  relative mFcγRIII-binding activity (mIgG1 = 1): 2.6 fold
[2]
  Relative mFcγRII-binding activity (MB110 = 1): 3.44 fold
  relative mFcγRII-binding activity (mIgG1 = 1): 42.2 fold
[3]
  mFcγRII-binding activity relative to H237-MB302/MRAL-k0 (before the introduction of V231D): ~0.8 fold

B2: H237-MB390/MRAL-k0 (antibody, mouse IgG1, kappa)
heavy: QVQLQESGPGLVKPSETLSLTCAVSGHSISHDHAWSWVRQPPGEGLEWIGFISYSGITNYNPSLQGRVTISRDNSKNTLYLQMNSLRAEDTAVYYCARSLARTTAMDYWGEGTLVTVSSAKTTPPSVYPLAPGSAAQTNSMVTLGCLVKGYFPEPVTVTWNSGSLSSGVHTFPAVLQSDLYTLSSSVTVPSSTWPSETVTCNVAHPASSTKVDKKIVPRDCGCKPCICEPNEVEDVFIFPPKPKDVLTITLTPKVTCVVVDISKDDPEVQFSWFVDDVEVHTAQTQPREEQFNSTFRSVSELPIMHQDWLNGKEFKCRVNSAAFPAPIEKTISKTKGRPKAPQVYTIPPPKEQMAKDKVSLTCMITDFFPEDITVEWQWNGQPAENYKNTQPIMDTDGSYFVYSKLNVQKSNWEAGNTFTCSVLHEGLHNHHTEKSLSHSPGK
light: not shown
notes: mIgG1 with T230E/V231P/P232N/S238E/S239D; also called template T8; copies: 2 + 2
[3]
  relative mFcγRII-binding activity (H237-mIgG1/MRAL-k0 = 1): > 500 fold

B3: H237-mIgG1/MRAL-k0 (antibody)
heavy: QVQLQESGPGLVKPSETLSLTCAVSGHSISHDHAWSWVRQPPGEGLEWIGFISYSGITNYNPSLQGRVTISRDNSKNTLYLQMNSLRAEDTAVYYCARSLARTTAMDYWGEGTLVTVSSAKTTPPSVYPLAPGSAAQTNSMVTLGCLVKGYFPEPVTVTWNSGSLSSGVHTFPAVLQSDLYTLSSSVTVPSSTWPSETVTCNVAHPASSTKVDKKIVPRDCGCKPCICTVPEVSSVFIFPPKPKDVLTITLTPKVTCVVVDISKDDPEVQFSWFVDDVEVHTAQTQPREEQFNSTFRSVSELPIMHQDWLNGKEFKCRVNSAAFPAPIEKTISKTKGRPKAPQVYTIPPPKEQMAKDKVSLTCMITDFFPEDITVEWQWNGQPAENYKNTQPIMDTDGSYFVYSKLNVQKSNWEAGNTFTCSVLHEGLHNHHTEKSLSHSPGK
light: not shown
notes: Anti-IL-6 receptor antibody with the unaltered mouse IgG1 H chain constant region; copies: 2 + 2
[4]
  Kd: 282 nM
